Literature values in patent US20230146896A1, “COMPOSITION AND METHOD FOR TREATING ALZHEIMER'S DISEASE” (Eisai R&D Management Co., Ltd., priority 2016, published 2023).

Conditions: previous studies, intravenous infusion; typically occurred on the first infusion

B1: BAN2401: humanized IgG1 monoclonal version of mAb158; heavy chain variable SEQ ID NO:1, light chain variable SEQ ID NO:2 (antibody, V domains shown)
VH: EVQLVESGGGLVQPGGSLRLSCSASGFTFSSFGMHWVRQAPGKGLEWVAYISSGSSTIYYGDTVKGRFTISRDNAKNSLFLQMSSLRAEDTAVYYCAREGGYYYGRSYYTMDYWGQGTTVTVSS
VL: DVVMTQSPLSLPVTPGAPASISCRSSQSIVHSNGNTYLEWYLQKPGQSPKLLIYKVSNRFSGVPDRFSGSGSGTDFTLRISRVEAEDVGIYYCFQGSHVPPTFGPGTKLEIK
In the case of B1, the “adverse events (infusion reactions)” value is given as “infusion reactions were common AEs”.
